Experiment: yeast display, Sf9 membrane polyspecificity reagent, FACS + sequencing; frameworks hold sequencing errors
Method in brief: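 A nanobody's polyreactivity label depends on the gate it was sorted from. Yeast display cells were stained with 10% biotinylated, detergent-solubilized Sf9 membrane reagent for 1 hour at 4 °C, enriched on streptavidin microbeads and sorted by FACS. The low and high (top ~1%) gates were set on anti-HA fluorescence for expression and streptavidin fluorescence for reagent binding.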

Sequence	polyreactivity (PSR sort gate)
QVQLVESGGGLVQAGGSLLLSCAASGSTFYLYAMGWYRQAPGKEMELVASISQSGGSTFYADSVKGRFTISRDNAKYTVYLQMNSLKPEDTAVYYCAADPNRSTDTVVPGFDYWGQGTQVTVSS	high polyreactivity
QVQLVESGGGLVQAGGSLLLSCAGTARNFTYNAMGWYRQAPGKERELVARITSGGNTNYADSVKGRFTISRDNAKNTVYLQMNSLKPEDTAVYYGATGLFWFTNRYGSWGQGTQVTVSS	low polyreactivity
QVQLVESGGGLVQAGGSLLLSCASSGFIFTKYTMGWYRLAPGKERELVAAITGRGTSTYADSVKGRFSMSRDNAKNTVYLQMNSLIPEDTAVYYCAAVGWFADFLFSDINGYYWGQGTQVTVSA	low polyreactivity
QVQLVESGGGLVQAGGSLPLRCAASGITFYGYTMGWYRQAPGKERELVAAITSVGSTYYADSVKGRFTISRDNAKNTVYLQMNSLKPEDTAVYYCNARPKFRTYNYWGQGTQVTVSS	high polyreactivity
QVQLVESGGGLVQAGGSLPLSCAASASIFSYYDMGWYRQAPGKERELVAAISWSGGSTYYADSVKGRFTISRDNAKNTVYLQMNSLKPEDTAVYYCAAGTYPYYWGQGTQVTVSS	low polyreactivity
QVQLVESGGGLVQAGGSLPLSCAASGITLYLYVMGWYRQAPGKEREFVAAIRWAGGSTYYADSVKGRFTISRDNAKNTVYLHMNSLKPEDTAVYYCNAEVYGYYSARRPGYEYWGQGTQVTVSS	low polyreactivity
QVQLVESGGGLVQAGGSLPLSCAASGRIYGSYAMGWYRQAPGKERELVADISRRGGGTYYADSVKGRFTISRDNAKNTVYLQMNSLKPEDTAFYYCAKDWYGRYYYWGQGTQVTVSS	high polyreactivity
QVQLVESGGGLVQAGGSLPLSCAASGRTFDANAMGWSRQAPGKERELVAAISSDGSTNYADSVKGRFTISRDNAKNTVYLQMNSLKPEDTAVYYCATDGKPLIRYDYDYWGQGTQVTVSW	high polyreactivity
QVQLVESGGGLVQAGGSLPLSCAASGSIFDGYAMGWYSQAPGKDRELDAGISKSGGRTYYADSVKGRFTISRDNAKNTVYLQMNSLKPEDTAVYYCATPGIRYDRVYRYDYWGQGTQVTVSS	high polyreactivity
QVQLVESGGGLVQAGGSLPLSCAASGSTFRYNAMGWYRQAPAKERELVAAISSGSSTNYADSVKGRFTISLDNAKNTVYLQMKSLKPEDTAVYYCARRPFYYHQLDDDYWGQGTQVTVSS	low polyreactivity
QVQLVESGGGLVQAGGSLPLSCAASGSTFSPYDMGWYIQAPGKDRELVAVITGSDGTYYADSVKGRFTITRDNAKNTVYVQMNSLKPEDTAVYYCATDWNFGRWYTLGVEMDYWGQGTQVTVSS	low polyreactivity
QVQLVESGGGLVQAGGSLPLSCAASRLIFTPYAMGWYIQAPGKERELVAAINYGGSRTYYADSVKGRFTISRDNAKNTVYLQMNSLKPEDTAVYYCAARGYTLSYVDMYYWGQGTQVTVSS	high polyreactivity
QVQLVESGGGLVQAGGSLPLSCASSGFTLVTYAMGWYRQAPGKERELVAAISSSGTSTYYADSVKARFTISRDNAKNTVYLQMNSLKPEDTAVYYCAVDDTHPFGPDGGGDYWGQGTQVTVSS	low polyreactivity
QVQLVESGGGLVQAGGSLPLSIAASGRIFHIYAMGWYRQAPGKERELVAAISGSTSYADSVKGRFTISRDNAKNTVNLQMNSLKPEDKAVYYCAARALLPNGEYWGQGTQVTVSS	low polyreactivity
QVQLVESGGGLVQAGGSLRFSCAASGFIFTYNAMGWYRQAPGKERELVAAITRNGVSTHYADSVKGRFTISRDNAKNSVYLQMNSLKPEDTAVYYCAADPRGWRHYYWGQGTQVTVSS	low polyreactivity
QVQLVESGGGLVQAGGSLRFSCAASGFIFVVNAMGGSRQAPGKEREFVAVISSSTGSTYYADSVKGRFTISRDNAKTTVYLQMNSLKPEDTAVYYCAAASRRRRPLKRMDYWGQGTQVTVSS	low polyreactivity
QVQLVESGGGLVQAGGSLRFSCAASGFTFSSNAMGWYRQAPGKERELVAAITASGASTYYADSVKGRFTISRDHAKNTVYLQMNSLKPEDTAVYYCAVKTSPRRYYWGQGTQVTVSS	high polyreactivity
QVQLVESGGGLVQAGGSLRFSCAASGFTFVYYVMGWYRQAPGKERELVAAINAGGGSTYYADSVKGRFTISRDNAKNTVYLQMNSLKPEDTAVYYCNARVRLGRNWSSYYYWGQGTQVTVSS	high polyreactivity
QVQLVESGGGLVQAGGSLRFSCAASGFTFYPNTMGWYRQAPGTERELVAAISSSGGRTYYADSVKGRFTISRDNAKNTVYLQMNSLKPEDNAVYYCNAAKWLTSGGLDYWGQGTQVTVSS	high polyreactivity
QVQLVESGGGLVQAGGSLRFSCAASGIIFYYKTMGLYRQAPGKERELVASITWSGDTTYYAYSVKGRYTISRDNAKNSVYLQMNSLKPEDTAVYYCAAACYWYPSYSSYLGMYYWGQGTKVTVSS	low polyreactivity
QVQLVESGGGLVQAGGSLRFSCAASGLTFNHNAMGWYRQAPGKERELVAAISRRGGSTYYADSVKGRFTISRDNAKNTVYVQMNSLKPEDTAVYYCNKDFPTLYSRGRYIYWGQGTQVTVSS	high polyreactivity
QVQLVESGGGLVQAGGSLRFSCAASGNIIDLYAMGWYRQARGQERVLVAAITRSSSRTYYADSVKGRFTISRDIAKNTVYLQMNSLKPEDTAVYYCRANQVNRLDYWGQGTQVTVSS	high polyreactivity

Sequence	polyreactivity (PSR sort gate)
QVQLVESGGGLVQAGGSLRFSCAASGRIFPAYAMGWYRQAPGKEREWVDAISRRGGSTYYADTVKGRFTISRDNAKNTVYLQMNSLNPEDTAVYYCAKEVWDSLGYPHSGDYWGQGTQVTVSS	low polyreactivity
QVQLVESGGGLVQAGGSLRFSCAASGRIFWYYVMGWDRQAPGKEREFVASISSGGSTYYADSVKGRFTISRDNANNTVYLQMNSLKPEDTAVYYCNAYVYGQRVWYDYWGQGTQVTVSS	high polyreactivity
QVQLVESGGGLVQAGGSLRFSCAASGRTFQYYTMGWSRQAPGKEREFVAAIRDSGGSTYYADSVKGRFTISRDNAKNTVYLQMNSLKPEDTAVYYCAAYRPRKYDYWGQGTQVTVSS	high polyreactivity
QVQLVESGGGLVQAGGSLRFSCAASGRTFYPYAMGWYRQAPGKERELVAAINGGGRTYYADSVKGRFTISRDNAKNTVYLQMNSLKPEDTAVYYCATRYPAWRYDYNYWGQGTQVSVSS	high polyreactivity
QVQLVESGGGLVQAGGSLRFSCAASGSIFITYAMGWSRQAPGKERELVAAIRDSGDRTYYADSVKGRFTISRDNAKNTVYLQMNSLKPEDTAVYYCNARWQEPLKYDYWGQGTQVTVSS	low polyreactivity
QVQLVESGGGLVQAGGSLRFSCAASGSIFSVYAMGWYRQAPGKEREWVAAITSGTYTYADSVKGRFTISRDNAKNSVYLQMNSLKAEDTAVYYCAAESGSPGYYYWGQGTQVTVST	low polyreactivity
QVQLVESGGGLVQAGGSLRFSCAASGSIFYGYTMGWYRQAPGKERELVAGISTYYADSVKGRFTISRDTAKNTVYLQMNSLKPEDTAVYYCAADYSSPTSEYDYWGQGTQVTVSS	low polyreactivity
QVQLVESGGGLVQAGGSLRFSCAASGSTFFSYAMGWYRQAPGKERELVATIRGSAGRTYYADSVKGRFTISRDHANYTVYLQMNSLKPEDTAVYYCARRYWPGSAYWIYDYWGQGTQVTVSS	high polyreactivity
QVQLVESGGGLVQAGGSLRFSCAASGSTFSYYAMGWYRQAPRKEREFVAAMSWNGGSTYYADSVKGRYTISRDNAKNTVYLHMNSLKPEDTEVYYCAADFKYGYSHGFRQRLYDYWGQGTQVTVSS	low polyreactivity
QVQLVESGGGLVQAGGSLRFSCAASGSTFVYNAMGWYRQAAGQERELVAVITYRGGRTYYADSVKGRFTISRDNAKNTVYLQINSLKPEDTAVYYCAAQTFRYRKKLDYWGQGTQVTVSS	high polyreactivity
QVQLVESGGGLVQAGGSLRFSCAASGSTFYYYAMGWYRQAPGKERELVAAINTSGGITYYADSVKGRFTISRDNAKNTVYLQMNSLKPEDTAVYYCATQLWDRYGFGYWGQGTQVTVSS	high polyreactivity
QVQLVESGGGLVQAGGSLRFSCAASGTFVPYAMGWYRQAPGKEMELVARITWRGGSTYYADSVKGRFTISRDNANNTVYLQMNSLKPEETAVYYCATVSDNRYYYWGQGTQVTVSS	low polyreactivity
QVQLVESGGGLVQAGGSLRFSCADSGSIFVRYAMGWYRQAPGKERELVAAISVRGGRTYYADSVKGRFTISRDNAKNTVYLQMNSLKPEDTAVYYCAAQLYYYYTYVPPGGYWGQGTQVTVSS	high polyreactivity
QVQLVESGGGLVQAGGSLRFSCDASGRSFYINAMGWYRQAPGKERELVAAITWSGGRTYYADSVKGRFTISRDNAKNTVYLQMNSLKPEDTAVYYCNTRSYSFYVPYRYDYWGQGTHVTVSS	high polyreactivity
QVQLVESGGGLVQAGGSLRFTCAASGRTFIGYAMGWYRHAPGKERELVATISVSGGSTYYADSVKGRYTISRDNAKKTVYLHMNSLKPEDTAVYYCAKAYLRYYDGPYDYWGQGTQVTLSS	low polyreactivity
QVQLVESGGGLVQAGGSLRIICAASGRTFSYYAMGWYRQAPGKERELVAAITAGGNTYYADSVKGRFTISRDNAKNTVYLQMNSLKAEDTAVYYCAATYYWAWGGVYHSEFDYWGQGTQETVSS	low polyreactivity
QVQLVESGGGLVQAGGSLRIICAASGSTLGYNAMGWYRQAPGKERELVAAISSDGGSTYYADSVKGRFTISRDNAKNTVYLQMNSLKPEDTAVYYCAAYYYTPGYGSWGQGTQVTVSS	low polyreactivity
QVQLVESGGGLVQAGGSLRIRCAASGGIFPPNAMGWYRHPPGKERELVASISSDGSTNYADSVKGRFTISRDNAKNNVILQMNSLKPEDTAVFYCNATHEAFELDYWGQGTQVNVSS	low polyreactivity
QVQLVESGGGLVQAGGSLRIRCAASGLIFGFYAMGWYRQAPGKERELVAAINSGGITYYADSVKGRFTISRDNAKNTVYLQMNSLKPEDTAVYYCNKDSHISTAYDYWGQGTQVTVSS	low polyreactivity
QVQLVESGGGLVQAGGSLRIRCAASGRIFPYYAMGWYRQAPGKERDLVATITSGGSTYYADTVKGRFTISRDNSKNTVYLQMKSLKPEDTAVYYCAARYPSIYYYRYDFWGQGTQVTVSS	high polyreactivity
QVQLVESGGGLVQAGGSLRISCAASGFIFWIYAMGWYRQAPGKEREFVAVITYRGDTTYYADSVKGRFTISRDNAKNTVYLQMNSLKPEDTAVYYCAAYTVQKYGYWGQGTQVTVSS	low polyreactivity

Source: the nanobody polyreactivity screen of Harvey et al. (2022)
